{"source": "IntAct's records for PubMed 21642957", "parents": {"B1": {"name": "Serine/threonine-protein kinase Nek9 (Homo sapiens), Q8TD19 (parent)", "chain": "MSVLGEYERHCDSINSDFGSESGGCGDSSPGPSASQGPRAGGGAAEQEELHYIPIRVLGRGAFGEATLYRRTEDDSLVVWKEVDLTRLSEKERRDALNEIVILALLQHDNIIAYYNHFMDNTTLLIELEYCNGGNLYDKILRQKDKLFEEEMVVWYLFQIVSAVSCIHKAGILHRDIKTLNIFLTKANLIKLGDYGLAKKLNSEYSMAETLVGTPYYMSPELCQGVKYNFKSDIWAVGCVIFELLTLKRTFDATNPLNLCVKIVQGIRAMEVDSSQYSLELIQMVHSCLDQDPEQRPTADELLDRPLLRKRRREMEEKVTLLNAPTKRPRSSTVTEAPIAVVTSRTSEVYVWGGGKSTPQKLDVIKSGCSARQVCAGNTHFAVVTVEKELYTWVNMQGGTKLHGQLGHGDKASYRQPKHVEKLQGKAIRQVSCGDDFTVCVTDEGQLYAFGSDYYGCMGVDKVAGPEVLEPMQLNFFLSNPVEQVSCGDNHVVVLTRNKEVYSWGCGEYGRLGLDSEEDYYTPQKVDVPKALIIVAVQCGCDGTFLLTQSGKVLACGLNEFNKLGLNQCMSGIINHEAYHEVPYTTSFTLAKQLSFYKIRTIAPGKTHTAAIDERGRLLTFGCNKCGQLGVGNYKKRLGINLLGGPLGGKQVIRVSCGDEFTIAATDDNHIFAWGNGGNGRLAMTPTERPHGSDICTSWPRPIFGSLHHVPDLSCRGWHTILIVEKVLNSKTIRSNSSGLSIGTVFQSSSPGGGGGGGGGEEEDSQQESETPDPSGGFRGTMEADRGMEGLISPTEAMGNSNGASSSCPGWLRKELENAEFIPMPDSPSPLSAAFSESEKDTLPYEELQGLKVASEAPLEHKPQVEASSPRLNPAVTCAGKGTPLTPPACACSSLQVEVERLQGLVLKCLAEQQKLQQENLQIFTQLQKLNKKLEGGQQVGMHSKGTQTAKEEMEMDPKPDLDSDSWCLLGTDSCRPSL"}}, "data": [{"variants_of": "B1", "conditions": "with plk1_human PLK1, P53350", "values": [{"variant": "S750A", "effect of a mutation on the interaction": "decreasing interaction"}]}, {"variants_of": "B1", "conditions": "with plk1_human PLK1, P53350", "remark": "another data set of the same source", "values": [{"variant": "S869A", "effect of a mutation on the interaction": "disrupting interaction"}]}]}
